These results are taken from patent US20120316071A1 (published 2012).

For test [1], the target named is T1, rHuman HGF R/c-MET/Fc Chimera, CF (R&D Systems Cat#358-MT/CF) (human, UniProt P08581 25-932). The test is described as follows: ECL Multispot (MSD), antigen spotted on plate, Fab in solution; blank spot 256.
Test [2] concerns the target T2, rHuman Notch-1/Fc Chimera, CF (R&D Systems Cat#3647-TK) (human).
T2 chain: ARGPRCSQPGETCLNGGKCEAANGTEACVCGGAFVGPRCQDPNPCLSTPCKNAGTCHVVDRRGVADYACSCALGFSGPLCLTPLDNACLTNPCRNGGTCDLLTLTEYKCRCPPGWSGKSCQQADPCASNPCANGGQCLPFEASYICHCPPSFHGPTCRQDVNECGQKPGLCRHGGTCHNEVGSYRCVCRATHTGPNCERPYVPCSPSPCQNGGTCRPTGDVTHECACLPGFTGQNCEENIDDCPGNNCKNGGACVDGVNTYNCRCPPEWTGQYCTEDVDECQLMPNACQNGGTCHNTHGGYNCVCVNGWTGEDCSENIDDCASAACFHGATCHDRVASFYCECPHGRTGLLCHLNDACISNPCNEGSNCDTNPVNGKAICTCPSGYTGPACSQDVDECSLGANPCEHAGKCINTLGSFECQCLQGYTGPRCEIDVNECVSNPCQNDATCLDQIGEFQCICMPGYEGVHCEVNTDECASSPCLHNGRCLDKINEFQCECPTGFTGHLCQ
The description is as above.

Test [3] deals with T3, rHuman CD44/Fc Chimera, CF (R&D Systems Cat#3660-CD) (human, UniProt P16070 21-220). The description is as above.
Test [4] has as its target T4, rHuman P-Cadherin/Fc Chimera, CF (R&D Systems Cat#861-PC) (human, UniProt P22223 108-654). The test is described as above.
For test [5], the target named is T5, rHuman Erythropoietin R/Fc Chimera, CF (R&D Systems Cat#963-ER) (human, UniProt P19235 25-250). The test is described as above.
Test [6] addresses T1, rHuman HGF R/c-MET/Fc Chimera, CF (R&D …). The test can be described thus: ECL Multispot (MSD), antigen spotted on plate, Fab in solution; blank spot 206.
Test [7] addresses T2, rHuman Notch-1/Fc Chimera, CF (R&D …). The description is as above.
Test [8] deals with T3, rHuman CD44/Fc Chimera, CF (R&D Systems …). The test is described as above.
The target in test [9] is T4, rHuman P-Cadherin/Fc Chimera, CF (R&D …). The test is described as above.
Test [10] addresses T5, rHuman Erythropoietin R/Fc Chimera, CF …. The description is as above.
The target of test [11] is T1, rHuman HGF R/c-MET/Fc Chimera, CF (R&D …). The test is described as follows: ECL Multispot (MSD), antigen spotted on plate, Fab in solution; blank spot 239.
Test [12] deals with T2, rHuman Notch-1/Fc Chimera, CF (R&D …). The test is described as above.
The target in test [13] is T3, rHuman CD44/Fc Chimera, CF (R&D Systems …). The test is described as above.
Test [14] deals with T4, rHuman P-Cadherin/Fc Chimera, CF (R&D …). The description is as above.
The target in test [15] is T5, rHuman Erythropoietin R/Fc Chimera, CF …. The test is described as above.
For test [16], the target named is T2, rHuman Notch-1/Fc Chimera, CF (R&D …). The test can be described thus: ECL Multispot (MSD), antigen spotted on plate, Fab in solution; blank spot 331.
Test [17] concerns the target T3, rHuman CD44/Fc Chimera, CF (R&D Systems …). The test is described as above.
Test [18] deals with T4, rHuman P-Cadherin/Fc Chimera, CF (R&D …). The description is as above.
The target of test [19] is T5, rHuman Erythropoietin R/Fc Chimera, CF …. Described as above.
Test [20] addresses T1, rHuman HGF R/c-MET/Fc Chimera, CF (R&D …). The test can be described thus: ECL Multispot (MSD), antigen spotted on plate, Fab in solution; blank spot 438.
Test [21] addresses T2, rHuman Notch-1/Fc Chimera, CF (R&D …). The test is described as above.
In test [22] the target is T3, rHuman CD44/Fc Chimera, CF (R&D Systems …). The test is described as above.
Test [23] deals with T4, rHuman P-Cadherin/Fc Chimera, CF (R&D …). The test is described as above.
Test [24] concerns the target T5, rHuman Erythropoietin R/Fc Chimera, CF …. The description is as above.
The target of test [25] is T1, rHuman HGF R/c-MET/Fc Chimera, CF (R&D …). The test is described as follows: ECL Multispot (MSD), antigen spotted on plate, Fab in solution; blank spot 479.
Test [26] concerns the target T2, rHuman Notch-1/Fc Chimera, CF (R&D …). The test is described as above.
The target in test [27] is T3, rHuman CD44/Fc Chimera, CF (R&D Systems …). The test is described as above.
The target in test [28] is T4, rHuman P-Cadherin/Fc Chimera, CF (R&D …). Described as above.
In test [29] the target is T5, rHuman Erythropoietin R/Fc Chimera, CF …. Described as above.

T1 sequence (P08581 25-932, change not shown): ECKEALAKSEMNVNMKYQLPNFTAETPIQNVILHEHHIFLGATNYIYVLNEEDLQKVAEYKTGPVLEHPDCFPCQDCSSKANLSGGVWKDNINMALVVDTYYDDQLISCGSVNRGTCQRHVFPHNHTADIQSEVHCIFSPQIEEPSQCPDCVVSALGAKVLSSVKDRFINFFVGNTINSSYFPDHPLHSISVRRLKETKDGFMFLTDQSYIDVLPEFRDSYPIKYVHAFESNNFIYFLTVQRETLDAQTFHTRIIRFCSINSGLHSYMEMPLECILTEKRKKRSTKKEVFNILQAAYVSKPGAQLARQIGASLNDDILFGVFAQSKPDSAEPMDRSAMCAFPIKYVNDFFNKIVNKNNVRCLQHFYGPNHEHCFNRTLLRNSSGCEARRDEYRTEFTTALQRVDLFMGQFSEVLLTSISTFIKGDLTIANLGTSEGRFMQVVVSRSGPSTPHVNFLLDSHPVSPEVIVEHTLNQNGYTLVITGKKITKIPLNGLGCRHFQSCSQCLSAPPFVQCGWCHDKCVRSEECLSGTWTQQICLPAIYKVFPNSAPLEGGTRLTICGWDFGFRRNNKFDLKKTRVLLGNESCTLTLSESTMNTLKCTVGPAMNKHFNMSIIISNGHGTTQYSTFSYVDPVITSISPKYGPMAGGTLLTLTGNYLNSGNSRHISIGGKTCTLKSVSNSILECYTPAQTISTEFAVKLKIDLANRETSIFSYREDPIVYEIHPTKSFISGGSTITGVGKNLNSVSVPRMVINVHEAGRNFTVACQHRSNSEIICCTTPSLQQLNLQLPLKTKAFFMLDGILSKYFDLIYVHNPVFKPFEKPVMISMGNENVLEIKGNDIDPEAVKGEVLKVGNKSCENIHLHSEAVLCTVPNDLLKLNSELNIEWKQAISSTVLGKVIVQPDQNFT

B1: Fab VH1-46_IGHD6-6*01_IGHJ1*01 S102A/S103P/S104F/H111F (APFF) & L6_IGKJ1*01 W94R (Fab, V domains shown)
VH: QVQLVQSGAEVKKPGASVKVSCKASGYTFTSYYMHWVRQAPGQGLEWMGIINPSGGSTSYAQKFQGRVTMTRDTSTSTVYMELSSLRSEDTAVYYCAREEYAPFSAEYFQFWGQGTLVTVSS
VL: EIVLTQSPATLSLSPGERATLSCRASQSVSSYLAWYQQKPGQAPRLLIYDASNRATGIPARFSGSGSGTDFTLTISSLEPEDFAVYYCQQRSNRPPWTFGQGTKVEIKR
notes: also called APFF / W94R
As to B1, the ECL signal is 293 in test [1]; 375 in test [2]; 443 in test [3]; 364 in test [4]; 546 in test [5].

B2: Fab VH1-46_IGHD6-6*01_IGHJ1*01 S102A/S103P/S104F/H111F (APFF) & L6_IGKJ1*01 N93S (Fab, V domains shown)
VH: QVQLVQSGAEVKKPGASVKVSCKASGYTFTSYYMHWVRQAPGQGLEWMGIINPSGGSTSYAQKFQGRVTMTRDTSTSTVYMELSSLRSEDTAVYYCAREEYAPFSAEYFQFWGQGTLVTVSS
VL: EIVLTQSPATLSLSPGERATLSCRASQSVSSYLAWYQQKPGQAPRLLIYDASNRATGIPARFSGSGSGTDFTLTISSLEPEDFAVYYCQQRSSWPPWTFGQGTKVEIKR
notes: also called APFF / N93S
Take B2: the ECL signal in test [6] is 328; in test [7] it was 345; in [8], 346; in [9] it was 321; in test [10], 420.

B3: Fab VH1-46_IGHD6-6*01_IGHJ1*01 S102A/S103P/S104F/H111F (APFF) & L6_IGKJ1*01 N93Q (Fab, V domains shown)
VH: QVQLVQSGAEVKKPGASVKVSCKASGYTFTSYYMHWVRQAPGQGLEWMGIINPSGGSTSYAQKFQGRVTMTRDTSTSTVYMELSSLRSEDTAVYYCAREEYAPFSAEYFQFWGQGTLVTVSS
VL: EIVLTQSPATLSLSPGERATLSCRASQSVSSYLAWYQQKPGQAPRLLIYDASNRATGIPARFSGSGSGTDFTLTISSLEPEDFAVYYCQQRSQWPPWTFGQGTKVEIKR
notes: also called APFF / N93Q
In the case of B3, the ECL signal in [11] is 309; in [12], 310; in test [13], 452; in [14], 304; in test [15], 477.

B4: Fab VH1-46_IGHD6-6*01_IGHJ1*01 S102A/S103P/S104F/H111F (APFF) & L6_IGKJ1*01 N93H (Fab, V domains shown)
VH: QVQLVQSGAEVKKPGASVKVSCKASGYTFTSYYMHWVRQAPGQGLEWMGIINPSGGSTSYAQKFQGRVTMTRDTSTSTVYMELSSLRSEDTAVYYCAREEYAPFSAEYFQFWGQGTLVTVSS
VL: EIVLTQSPATLSLSPGERATLSCRASQSVSSYLAWYQQKPGQAPRLLIYDASNRATGIPARFSGSGSGTDFTLTISSLEPEDFAVYYCQQRSHWPPWTFGQGTKVEIKR
notes: also called APFF / N93H
As to B4, the ECL signal in [16] was 342; in test [17], 345; in [18], 293; in test [19], 425.

B5: Fab VH1-46_IGHD6-6*01_IGHJ1*01 S102A/S103P/S104F/H111F (APFF) & L6_IGKJ1*01 W94T (Fab, V domains shown)
VH: QVQLVQSGAEVKKPGASVKVSCKASGYTFTSYYMHWVRQAPGQGLEWMGIINPSGGSTSYAQKFQGRVTMTRDTSTSTVYMELSSLRSEDTAVYYCAREEYAPFSAEYFQFWGQGTLVTVSS
VL: EIVLTQSPATLSLSPGERATLSCRASQSVSSYLAWYQQKPGQAPRLLIYDASNRATGIPARFSGSGSGTDFTLTISSLEPEDFAVYYCQQRSNTPPWTFGQGTKVEIKR
notes: also called APFF / W94T
On to B5, for which the ECL signal in test [20] was 377; in [21], 418; in [22], 453; in [23] it was 481; in test [24] it was 432.

B6: Fab VH1-46_IGHD6-6*01_IGHJ1*01 S102A/S103P/S104F/H111F (APFF) & L6_IGKJ1*01 W94S (Fab, V domains shown)
VH: QVQLVQSGAEVKKPGASVKVSCKASGYTFTSYYMHWVRQAPGQGLEWMGIINPSGGSTSYAQKFQGRVTMTRDTSTSTVYMELSSLRSEDTAVYYCAREEYAPFSAEYFQFWGQGTLVTVSS
VL: EIVLTQSPATLSLSPGERATLSCRASQSVSSYLAWYQQKPGQAPRLLIYDASNRATGIPARFSGSGSGTDFTLTISSLEPEDFAVYYCQQRSNSPPWTFGQGTKVEIKR
notes: also called APFF / W94S
Consider B6, for which the ECL signal worked out at 453 in test [25]; 486 in test [26]; 469 in [27]; 466 in test [28]; 506 in [29].
